Reference: PMC8034803
Like-named read-outs stand apart in the source and are kept apart here.

Assays:
PABP1 (Homo sapiens) = PABP1 (Homo sapiens) (UniProt P11940); conditions: cited from earlier work
PABP1 [1] = target: T1, PABP1 (human, UniProt P11940 1-636); assay: EMSA
PABP1 [2] = target: T1, PABP1; assay: EMSA; remark: listed apart in the source
PABP1 [3] = target: T1, PABP1; assay: EMSA; remark: listed apart in the source
WT NS1-RBD = WT NS1-RBD (Influenza A virus A/Udorn/307/1972 …, UniProt P03495 1-73); assay: fluorescence anisotropy
Chain of WT NS1-RBD (P03495 1-73): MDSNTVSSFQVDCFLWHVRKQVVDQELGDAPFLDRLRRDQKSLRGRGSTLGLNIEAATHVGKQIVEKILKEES

T1 sequence (P11940 whole entry): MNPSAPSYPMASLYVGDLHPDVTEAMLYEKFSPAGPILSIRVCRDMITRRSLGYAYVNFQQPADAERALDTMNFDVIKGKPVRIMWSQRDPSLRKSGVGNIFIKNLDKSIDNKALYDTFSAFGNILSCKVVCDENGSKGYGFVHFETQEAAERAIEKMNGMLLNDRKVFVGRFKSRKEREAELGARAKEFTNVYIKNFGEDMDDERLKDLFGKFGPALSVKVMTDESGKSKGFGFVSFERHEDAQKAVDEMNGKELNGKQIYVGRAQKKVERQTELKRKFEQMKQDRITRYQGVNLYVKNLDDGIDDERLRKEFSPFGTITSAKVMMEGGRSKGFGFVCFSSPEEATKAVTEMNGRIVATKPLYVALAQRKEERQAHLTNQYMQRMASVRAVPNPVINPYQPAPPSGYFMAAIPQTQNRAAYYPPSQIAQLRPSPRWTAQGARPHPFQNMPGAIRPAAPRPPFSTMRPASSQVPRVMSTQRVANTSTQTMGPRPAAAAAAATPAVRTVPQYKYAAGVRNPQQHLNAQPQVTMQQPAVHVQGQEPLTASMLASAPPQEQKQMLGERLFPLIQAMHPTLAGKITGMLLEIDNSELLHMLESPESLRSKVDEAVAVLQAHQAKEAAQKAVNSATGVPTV
Chain of PABP1 (Homo sapiens) (P11940 whole entry): as above

For NS1 (from UniProt Q8QPI8), the Kd (PABP1 (Homo sapiens)) is listed as 20 nM.

AAAAAAAAAAAAAAAAAA (ssRNA) [poly(A)18]: binds (PABP1 [1]).

GCUAUCCAGAUUCUGAUU (ssRNA) [ssCR1]: no binding (PABP1 [2]).

B1: poly(A)60 (ssRNA)
RNA: AAAAAAAAAAAAAAAAAAAAAAAAAAAAAAAAAAAAAAAAAAAAAAAAAAAAAAAAAAAA
B1: binds (PABP1 [3]).

B2: dsRK1 (dsRNA)
RNA 1: CCAUCCUCUACAGGCG
RNA 2: CGCCUGUAGAGGAUGG
In the case of B2, the Kd (WT NS1-RBD) is reported as 76 ± 9 nM.
